According to US20070167369A1, “Novel use of isolated polypeptide comprising four FAS-1 domains, EM1 domain and RGD motif” (KYUNGPOOK NATIONAL UNIVERSITY INDUSTRY-ACADEMIC COOPERATION …, priority 2004, published 2007):

B1: βig-h3 D-II: recombinant protein containing the second fas-1 domain of human βig-h3 (SEQ ID NO: 62) (protein, listed as Homo sapiens)
chain: NIQQIIEIEDTFETLRAAVAASGLNTMLEGNGQYTLLAPTNEAFEKIPSETLNRILGDPEALRDLLNNHILKSAMCAEAIVAGLSVETLEGTTLEVGCSGDMLTINGKAIISNKDILATNGVIHYIDELLI
B2: Regenin: size control of truncated βig-h3: protein that expresses four copies of the fourth fas-1 domain (protein)
chain: MGTVMDVLKGDNRFSMLVAAIQSAGLTETLNREGVYTVFAPTNEAFRALPPRERSRLLGDAKELANILKYHIGDEILVSGGIGALVRLKSLQGDKLEVSLKNNVVSVNKEPVAEPDIMATNGVVHVITNVLMGTVMDVLKGDNRFSMLVAAIQSAGLTETLNREGVYTVFAPTNEAFRALPPRERSRLLGDAKELANILKYHIGDEILVSGGIGALVRLKSLQGDKLEVSLKNNVVSVNKEPVAEPDIMATNGVVHVITNVLMGTVMDVLKGDNRFSMLVAAIQSAGLTETLNREGVYTVFAPTNEAFRALPPRERSRLLGDAKELANILKYHIGDEILVSGGIGALVRLKSLQGDKLEVSLKNNVVSVNKEPVAEPDIMATNGVVHVITNVLMGTVMDVLKGDNRFSMLVAAIQSAGLTETLNREGVYTVFAPTNEAFRALPPRERSRLLGDAKELANILKYHIGDEILVSGGIGALVRLKSLQGDKLEVSLKNNVVSVNKEPVAEPDIMATNGVVHVITNVL

Tests used:
Assay type in all cases: cell-based, human
HUVECs [1] = test: Endothelial tube formation assay on Matrigel (Examples 9-1 and 11); conditions: Example 11; controls BSA or Nus protein
Experimental: First, 100 μl of Matrigel (Chemicon, International Inc, Temecula, Calif.) was added to each well of a 96-well plate and allowed to polymerize. HUVECs were suspended in medium at a density of 3×10^5 cells/ml, and 0.1 ml of the cell suspension was added to each well of the plate coated with Matrigel. At this time, 5 μM or 10 μM of the fas-1 domain (βig-h3 D-IV) prepared in Example 1 above was added together. A control was either treated with BSA or had no treatment. Thereafter, the cells were incubated at 37° C. for 16-18 hours. The cells were photographed, and endothelial tubes were counted and averaged.
For this purpose, the second fas-1 domain of βig-h3 (βig-h3 D-II) was prepared in the same manner as in Example 1-1 above. Since each domain of stabilin-II is insoluble, it was prepared in the form of soluble protein by cloning into the BamHI/XhoI sites of a Nus-conjugated pET43.1 vector (Novagen, USA). The prepared recombinant proteins were named “Nus-fas3” and “Nus-fas7”, respectively. A control to the second fas-1 domain of βig-h3 was treated with BSA, and a control to the fas-1 domain of stabilin-II was treated with a Nus protein. Thereafter, an endothelial tube formation assay was performed in the same manner as in Example 9-1.

HUVECs [2] = test: Migration of endothelial cells to vitronectin, transwell (Example 13-2)
Experimental: Cell migration assays were done in transwell plates (8 μm pore size, Costar, Cambridge, Mass.). The undersurface of the membrane was coated with 5 μg/ml of vitronectin at 4° C. and blocked for 1 hour at room temperature with PBS containing 2% BSA. HUVECs were suspended in medium at a density of 3×10^5 cells/ml, and 0.1 ml of the cell suspension was pre-incubated with or without the indicated concentration of the truncated βig-h3, the fas-1 domain and Regenin for 40 min at 37° C., then added to the upper compartment of the filter. Cells were allowed to migrate for 4 to 6 hours at 37° C. The filters were fixed with 8% glutaraldehyde and stained with crystal violet, and non-migrating cells on the upper surface of the filter were removed by wiping with a cotton swab. The extent of cell migration was determined by light microscopy, and within each well, counting was done in nine randomly selected microscopic high power fields (x200).

HUVEC = test: Adhesion of endothelial cells to vitronectin (Example 13-1)
Experimental: Flat-bottomed 96-well ELISA plates (Costar, Corning, Inc., NY) were incubated overnight at 4° C. with 5 μg/ml of vitronectin (Promega, Madison, Wis.) and blocked for 1 hour at room temperature with PBS containing 2% bovine serum albumin (BSA).
Primary human umbilical vein endothelial cells (HUVEC) were cultured at 37° C. in 5% CO2 in M199 medium supplemented with 20% fetal bovine serum. For all the experiments, HUVECs were used at passage 4 or less. HUVEC cells were suspended in medium at a density of 3×10^5 cells/ml, and 0.1 ml of the cell suspension was pre-incubated with or without the indicated concentration of the truncated βig-h3, the fas-1 domain and Regenin for 40 min at 37° C., then added to each well of the coated. After incubation for 5 to 10 minutes at 37° C., unattached cells were removed by rinsing with PBS. Attached cells were then incubated for 1 hour at 37° C. in 50 mM citrated buffer (pH 5.0) containing 3.75 mM p-nitrophenyl-N-acetyl-Dglycosamide and 0.25% Triton X-100. Enzyme activity was blocked by adding 50 mM glycine buffer (pH 10.4) containing 5 mM EDTA, and the absorbance was measured at 405 nm in a Bio-Rad model 550 microplate reader.

HUVECs [3] = test: Endothelial tube formation in Matrigel (Example 14)
Experimental: Matrigel (Chemicon, International Inc, Temecula, Calif.) was added (100 μl) into each well of a 96-well plate and polymerized for 30 minutes at 37° C. HUVECs were suspended in medium at a density of 3×10^5 cells/ml, and 0.1 ml of the cell suspension was pre-incubated with or without the indicated concentration of the truncated βig-h3, the fas-1 domain and Regenin for 40 min at 37° C., then seeded on the surface of the Matrigel. Cells were incubated for 6 to 10 hours at 37° C. The cells were then photographed, and branch points from 4 high-power fields (x200) were counted and averaged.

Molecule	inhibition of endothelial tube formation by various fas-1 domains (HUVECs [1])	IC50 (HUVECs [2]; read-out: half-inhibition of migration toward vitronectin observed at) [µM]	inhibition of migration to vitronectin (HUVECs [2]; various concentrations, 4 to 6 hours)	inhibition of adhesion to vitronectin (HUVEC; 500 nM)	inhibition of adhesion to vitronectin (HUVEC; various concentrations, vitronectin 5 μg/ml)	70%-inhibition of tube formation observed at (HUVECs [3]; concentration giving 70% inhibition) [µM]	inhibition of tube formation (HUVECs [3]; various concentrations, 6 to 10 hours)
B1	completely inhibited						
B2		5	dose-dependent inhibition	ineffective	dose-dependent inhibition	5	dose-dependent inhibition
